Publication PMC2889767

T1: Rfx3 (in vitro translated) (UniProt P48381 1-749)
T1 sequence: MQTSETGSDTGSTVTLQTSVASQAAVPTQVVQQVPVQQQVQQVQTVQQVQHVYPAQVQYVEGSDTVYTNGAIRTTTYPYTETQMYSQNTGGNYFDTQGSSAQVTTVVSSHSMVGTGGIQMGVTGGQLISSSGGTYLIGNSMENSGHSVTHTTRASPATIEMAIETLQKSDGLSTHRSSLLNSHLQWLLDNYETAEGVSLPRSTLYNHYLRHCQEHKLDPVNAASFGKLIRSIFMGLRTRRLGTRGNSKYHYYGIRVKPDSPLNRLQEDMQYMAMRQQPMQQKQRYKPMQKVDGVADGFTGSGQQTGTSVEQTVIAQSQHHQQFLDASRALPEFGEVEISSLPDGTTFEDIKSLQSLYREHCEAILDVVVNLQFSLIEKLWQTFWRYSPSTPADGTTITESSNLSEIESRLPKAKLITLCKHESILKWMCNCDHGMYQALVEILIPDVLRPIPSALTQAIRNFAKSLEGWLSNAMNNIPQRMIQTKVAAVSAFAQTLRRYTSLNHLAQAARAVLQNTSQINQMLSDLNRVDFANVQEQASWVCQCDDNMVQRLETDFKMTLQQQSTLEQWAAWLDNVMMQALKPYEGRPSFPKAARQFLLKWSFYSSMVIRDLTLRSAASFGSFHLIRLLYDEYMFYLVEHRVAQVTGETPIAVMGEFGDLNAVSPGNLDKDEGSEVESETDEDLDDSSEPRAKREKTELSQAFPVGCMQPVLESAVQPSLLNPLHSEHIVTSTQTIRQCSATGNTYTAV

B1: Pal-2 wild type (dsDNA)
DNA 1: GGCAATGGTCACCATAGAAACCACAG
DNA 2: GGCTGTGGTTTCTATGGTGACCATTG
B2: Pal-1 wild type (dsDNA)
DNA 1: GGGAGTGGTCACCATGGTGACAGGAG
DNA 2: GGCTCCTGTCACCATGGTGACCACTC

Target: T1, Rfx3 (in vitro translated)
Test: EMSA

| Binder | binding result |
| --- | --- |
| B1 | binds |
| B2 | binds |
